For 139 substances, amyloid nucleation score results are on record in the supplement of paper PMC12042874.

± gives the uncertainty stated by the source.

A short description of this data set: amyloid nucleation score (Sup35N fusion, yeast selection) (log enrichment); library NNK1; higher = more nucleation; inactive = no reads after selection. Summed up:
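Peptides of 20 random codons, each fused to Sup35N, were expressed in psi-negative yeast. Cells were induced with 100 μM copper sulfate for 24 hours and grown 7 days at 30°C on medium lacking adenine and uracil, and plasmid inserts before and after selection were Illumina-sequenced. Nucleation scores are DiMSum log enrichments of output over input reads, centred on the mode score of non-aggregating sequences, and sequences under 100 input reads were excluded.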
On to VHWLNCRLLGSLWVVGANWL, for which the amyloid nucleation score entry is “inactive”.
In turn, SLSFVVSGMRFAFAGFFMVS returned an amyloid nucleation score of -0.055 ± 0.21.
The same measure for LRARVGGVEFVYSVQRRLKP: -0.167 ± 0.62; for IDVGSHFCSFQEHKACGTSL: 0.31 ± 0.47; for YSYVRVIFYV: 0.145 ± 1.
HIYSF came in with an amyloid nucleation score of 1.26 ± 0.12.
With KKVINPYFFGCTGCNNTQRK the figure was -0.149 ± 0.31; with HPIGSDSPHSVFMVSCVSLQ, 1.68 ± 0.28.
On to YKVCRMCAKGCSDSFRPVRA, for which the amyloid nucleation score was 0.555 ± 0.48.
The same measure for FCIYVLFFRSVDYPLRVVEL: -0.529 ± 0.67; for CHGCIGTNSEGLCTLYEDYT: -0.594 ± 0.26; for IGDTI: 0.302 ± 0.33.
The same measure for VRYEIAA: -1.06 ± 2.4; for DVRRYSGLNRAMKLRWGSCA: 0.193 ± 0.79; for CPRVKAHVRKNVFFSLVMSL: 0.296 ± 0.44.
With CLIESIWKLVVSNGSKYISY the figure was -0.181 ± 0.18; with TLHKFCLSGVHSFVGVTNST, 0.06 ± 0.46.
On to RHFEDYMELSSLSLGMGEG, for which the amyloid nucleation score was -0.394 ± 0.63.
With KVLMTAGFYVVLRALKHRTK the figure was 1.51 ± 0.34; with MDRDASYHGYIGHLLSWIGM, 0.886 ± 1.1.
Take KHDIIESQPQVVHNNRCVWL: the amyloid nucleation score entry was “inactive”.
WIAFERPAYVDSWHLTRNRP came in with an amyloid nucleation score of 0.109 ± 0.24.
The same measure for GFFLI: -0.007 ± 0.21; for SWIRNRWHYTQ: -0.141 ± 0.72.
Turning to MIFPDQYYYSISPW, the amyloid nucleation score was -0.115 ± 0.28.
In the case of IVVLLKNRS, the amyloid nucleation score amounted to 0.488 ± 0.47.
SRYRA: the amyloid nucleation score was found to be 5.11 ± 0.076.
The same measure for HLECFRLRLPFTNCDVYVRS: 0.845 ± 0.54; for SCCWVSIDSNQCHRACTVRT: -0.136 ± 0.56.
SLLIELSFRTGNSEY gave an amyloid nucleation score of 0.152 ± 0.5.
The substance RFFMTHSYELYLEFRGAARR returned an amyloid nucleation score of 1.28 ± 0.42.
Take SMRSNWPGYCTRNGFTLSLL: the amyloid nucleation score was -0.684 ± 0.32.
With RHIFIRGIVYCCVSTFRFPS the figure was -0.218 ± 0.27.
With TDPLSYTFVTSPVMVTRGSS the figure was -0.942 ± 0.52; with FTLRSDVAQQVIDDMGAVGS, -1.11 ± 1.5.
The same measure for SCKFMIYNSVGAGSLGHVNR: 4.69 ± 0.094; for SILIRLIISTINCCVNNVAF: 5.43 ± 0.083; for NLYYWYGTVSIWFYNRWFGV: -0.021 ± 0.66.
VSLCVSFFFYRSAVITVYAH showed an amyloid nucleation score of 0.282 ± 0.58.
CYHSKFAVAYQSRICWPWRD returned an amyloid nucleation score of 1.26 ± 0.67.
The same measure for FSDSKLILRRRNPW: -1.56 ± 1.4; for WVDGESAPDDERRQWICDIG: -0.948 ± 1.3.
Substance CSLTKQRCYFEQLMSGPPCL showed an amyloid nucleation score of -0.329 ± 0.35.
In turn, RIKFDTKMRTVQCSCGSLHS displayed an amyloid nucleation score of 2.78 ± 0.18.
With ICIYNSGIGLTGVRVWVQGL the entry was “inactive”; with ANVNSWTRPAIMIVLDWGVP, 0.868 ± 0.58; with LLLSSLTDFHVVDRLIKQAW, -0.003 ± 0.41.
The same measure for KVRHNVVLG: -1.19 ± 0.66.
Take WHWVAEWSMRTYSGLSIECY: the amyloid nucleation score entry was “inactive”.
For PRMFIWMCDRDDVSMYQEFL, the amyloid nucleation score was 0.48 ± 0.55.
The same measure for TICVYSG: 0.008 ± 0.49; for RYSLYQSEWVGKSMRDLTAR: 1.03 ± 0.62; for IAMLSCQRWMCQQTVTSKF: -1.29 ± 0.77.
With DASIIPYMNMFIMLTSLA the figure was -0.889 ± 1.7; with VVLQVMFARAWWFF, 0.185 ± 0.33; with YTSGLFGF, -0.531 ± 0.37.
NDTFSYCSTSGDRFGT gave an amyloid nucleation score of 1.4 ± 0.24.
With RSFAYSLSQGYFANMNAKVR the entry was “inactive”; with TRSDQPTILTSLYLERNYSP, -0.321 ± 0.56; with GVLILCVSAKSRSAAVKQLS, 0.755 ± 0.68.
For KDQKISVIMFILMRVPLY, the amyloid nucleation score stood at 0.546 ± 0.45.
The same measure for QFYVSVFEIYSLLTRKCACR: “inactive”; for GKCMYRVCYSEA: -0.056 ± 0.46.
In the case of DNGFSTQA, the amyloid nucleation score was -0.11 ± 0.82.
The same measure for LTRDLMCEPVLCGLLPVSGR: 0.314 ± 1.4; for FHAWSVFFIVRCLTEVRGYL: -0.081 ± 0.34.
GDCTLVMLINE gave an amyloid nucleation score of 0.011 ± 0.28.
With CSPVYIEFRLRQVFVARA the figure was 1.26 ± 0.76; with NDWVY, 1.12 ± 0.53; with SFYILTHTNFGTFPLFDDRH, -0.897 ± 0.69.
With WNRYWNLFYRGTLDSTAIGS the figure was -1.76 ± 2.4; with WMAFWGWVLYYFSFHFTFNV, 0.079 ± 0.48; with KNFFPFAFVFL, 7.083 ± 0.053.
With LSGERNVMCSVWACLGRDYR the figure was 8.102 ± 0.047.
As to IEVDPTNSKKSAPDTHLGSL, the amyloid nucleation score was -0.001 ± 0.95.
As for AWFSISTRRIAIAWVILPCN, the amyloid nucleation score is -0.398 ± 0.4.
With ILVSYLSLPT the figure was 0.802 ± 0.42.
The same measure for RCTLISRHDWGYANWMRLLL: 4.81 ± 0.077.
With MQNCISLL the figure was -0.483 ± 0.4.
For MCSSKPSGPLAVN, the amyloid nucleation score was -1.02 ± 0.52.
With SVVMHSWLLLIVTSGSFMYV, the amyloid nucleation score turned out to be 0.218 ± 0.53.
With YLFAWSWEDGFYTGACRLLA the figure was 0.006 ± 0.29; with YNVWVWCERGQC, 4.5 ± 0.1.
With DTSSACLCNRDRSDLLVCRV, the amyloid nucleation score entry was “inactive”.
The same measure for FWGFVGTVMLLKCVFHGVSA: 0.628 ± 0.63; for LQLCLPVFNHVMHVNWMRFY: -0.837 ± 2.4; for TRYLRIWSPSQMICMWGRFL: 0.145 ± 0.5.
Turning to ITSNHSVWGIMLLKLVTGSI, the amyloid nucleation score was found to be 0.496 ± 0.48.
For NIEVYDFYNINSMYNV, the amyloid nucleation score was determined as 4.54 ± 0.079.
The same measure for RDVAMESRVSGYVGVCGSYR: -0.71 ± 1.2; for YYSFGRFKYTILL: -0.242 ± 0.6; for SLYFFLFRCVCKRLYSGWNV: -0.481 ± 1.
As to NNSLISTGVRMNHVVLR, the amyloid nucleation score is -0.091 ± 0.9.
With DAEFRHDSGYEVHHQKLVFF, the amyloid nucleation score is 2.91 ± 0.19.
In turn, YLICWVIPGSNVGLMVGMTA had an amyloid nucleation score of 0.093 ± 1.4.
With LMFAISKIKIF the entry was “inactive”.
VRVEKNCNFWLFSIVSCLPH showed an amyloid nucleation score of 8.49 ± 0.065.
Consider IHVTGCYLEPSAHF, for which the amyloid nucleation score entry is “inactive”.
The same measure for CDWNLSNGGYGDHARCSGSA: 5.13 ± 0.069; for KLRSGCLDYIVIDLWTF: -0.439 ± 0.39; for YTTHLCLGAVSLYYVSGYTR: 2.44 ± 0.13.
With DRFRRTNAIGLVHMDSGKG the figure was 0.907 ± 0.39.
In the case of TIKEGSLITTDAKYLMGMMK, the amyloid nucleation score came to 2.03 ± 0.19.
The same measure for CYCNEKIVTMRAIDIVRFTC: -0.556 ± 0.23; for SRSGSLKCRGAQGFTCY: 0.564 ± 0.52; for GLSQWGTVRCHTAASIYLAT: 0.316 ± 0.58.
The substance RSYGGLIKFNHVSDTL showed an amyloid nucleation score of -0.429 ± 0.93.
With FLWDL the figure was 0.268 ± 0.75.
YSAALRHGQRHKWRSGRKIG had an amyloid nucleation score of 0.674 ± 1.2.
With VCSQHGGWISGGKGSILARS the figure was -0.417 ± 0.99; with SKWYSDQT, “inactive”.
With KPGTNSYGCVYNHGFMGCTK the figure was -0.245 ± 0.45.
With WHSMKMCF the figure was 0.115 ± 0.45; with YILPEAEHSKGC, 0.803 ± 0.63; with ISSLYLMSFCILFPPRKFVY, -1.09 ± 0.51.
LLWNDCGFLRWASGH returned an amyloid nucleation score of 2.59 ± 0.11.
With VLCLHWWLRTILGPLLAYAN the entry was “inactive”.
With VMTWTLCRTRG the figure was -0.275 ± 0.4.
With NCMKLLEQRGGCLQANGF the figure was 2.09 ± 0.15; with EASLAPYEESELA, 1.76 ± 0.54.
As to INVMWRYSFWLEFQT, the amyloid nucleation score was -0.442 ± 0.4.
ENEAGATYDGMMVVGSELSS returned an amyloid nucleation score of 0.997 ± 0.43.
TCTFPKVIQSYAGRLAMPGY registered an amyloid nucleation score of -0.135 ± 0.58.
With ANIYGWDDPYFEQL the figure was 0.045 ± 0.75.
SAASPFFFSDCGWPSGILNY showed an amyloid nucleation score of 1.26 ± 0.67.
EEFFMLRVDWIEEANQCKRE gave an amyloid nucleation score of 0.221 ± 0.47.
With VRRSEHSRLSYEWGECLRLT the figure was -0.174 ± 0.38.
With RCDYVEWIWYPCYRRNGVCR the figure was 0.171 ± 0.39; with VNSTEGP, -0.989 ± 2.7.
With INYHMVNLNVLAMC the figure was 2.17 ± 0.46.
In the case of FHQDFDSWF, the amyloid nucleation score was 0.362 ± 0.51.
With CDRFWMELG, the amyloid nucleation score was -0.267 ± 0.4.
The same measure for CAIFFTASLCVCRLSAACEQ: 1.75 ± 0.43.
The same measure for NAQWKHETHIFCSAMFVTEC: 0.878 ± 0.45; for HWLTV: -1.27 ± 1.6.
Regarding NSIYHYIVNTFYLNFMGWIE, the amyloid nucleation score came to 1.25 ± 0.79.
Substance NMRVFWSARRQALFQWRIL had an amyloid nucleation score of 0.807 ± 0.71.
The same measure for STALLS: 0.21 ± 0.74; for DFYADIASVMSVPILCSLLG: “inactive”.
